The substances below were run against FcγRIIIa-F158 (low-affinity FcγIIIa receptor allele) (human) (UniProt P08637) (assay: ELISA).

EC50 | Substance
12.8 nM | G2(Az)F (2), core 6-azido-fucosylated Herceptin carrying a complex-type N-glycan (antibody; other documents disagree on this pair)
1430 nM | G2Ara (6), core D-arabinosylated Herceptin (antibody; other documents disagree on this pair)
1570 nM | G2F (1), core-fucosylated Herceptin glycoform carrying the biantennary complex-type N-glycan (antibody; other documents disagree on this pair)

The next lines start with the substance.

Substance | EC50
G2Gal (5), core L-galactosylated Herceptin (antibody; other documents disagree on this pair) | 84.6 nM
G2 (11), nonfucosylated Herceptin glycoform carrying the biantennary complex-type N-glycan (antibody; other documents disagree on this pair) | 11.5 nM
G2(NH2)F (3), core 6-amino-fucosylated Herceptin (antibody; other documents disagree on this pair) | 89.3 nM
G2(OH- triazol)F (4), core 6-triazole-fucosylated Herceptin (antibody; other documents disagree on this pair) | 81.4 nM

What follows are substances tested against FcγRIIIa-V158 (high-affinity FcγIIIa receptor allele) (human) (UniProt P08637) (assay: ELISA).

EC50 | Substance
9.25 nM | G2(NH2)F (3), core 6-amino-fucosylated Herceptin (antibody)
7.19 nM | G2Gal (5), core L-galactosylated Herceptin (antibody)
1.21 nM | G2 (11), nonfucosylated Herceptin glycoform carrying the biantennary complex-type N-glycan (antibody)
39.7 nM | G2Ara (6), core D-arabinosylated Herceptin (antibody)

Continued, substance first:

Substance | EC50
G2F (1), core-fucosylated Herceptin glycoform carrying the biantennary complex-type N-glycan (antibody) | 42.6 nM
G2(OH- triazol)F (4), core 6-triazole-fucosylated Herceptin (antibody) | 18.2 nM
G2(Az)F (2), core 6-azido-fucosylated Herceptin carrying a complex-type N-glycan (antibody) | 2.86 nM
